{"source": "patent US20110033476A1", "about": "(published 2011)", "target": "23 amino acid synthetic peptide corresponding to the M2e domain of A/Fort Worth/1/50 (H1N1) (Influenza A virus A/Fort Worth/1/50 (H1N1))", "assay": "ELISA, 23mer M2e peptide coated at 1 µg/mL (FIG. 14b)"}
{"substance": "chimeric mouse V-region/human IgG1 kappa 14C2 antibody", "values": [{"measurement": "EC50", "result": 0.01, "unit": "µg/mL"}]}
